Series [1] concerns the molecule itself. Put plainly: native gel or EMSA; 1xSPS probe; band intensities fitted to a 2-site binding model with cooperativity factor C (Kd,2nd = Kd,1st/C); RBPj 2.5 to 640 nM, N1ICD and MAML at 2 uM; association of two NTCs on DNA. On the technique in general: In EMSA bound probe runs differently from free probe, usually more slowly.
The target in series [2] is T1, mouse RBPj (aa 53–474) (mouse, UniProt P31266 53-474).
T1 construct: RBPj (CSL), mouse, residues 53-474; also called CSL
Description: native gel or EMSA; Notch transcription complexes assembled on fluorescent DNA probes with CSL sites (1.75 nM each probe); RBPj 2.5 to 640 nM in 4-fold steps, with or without N1ICD and MAML at 2 uM; native polyacrylamide gel. Particulars: both partners purified.

These results are taken from paper PMC7561103, “Notch dimerization and gene dosage are important for normal heart development, intestinal stem cell maintenance, and splenic marginal zone B-cell homeostasis during mite infestation” (PLoS Biology, 2020).

Substitutions are numbered along the chain they refer to. Numbers in names are those of the source.

T1 sequence (P31266 53-474): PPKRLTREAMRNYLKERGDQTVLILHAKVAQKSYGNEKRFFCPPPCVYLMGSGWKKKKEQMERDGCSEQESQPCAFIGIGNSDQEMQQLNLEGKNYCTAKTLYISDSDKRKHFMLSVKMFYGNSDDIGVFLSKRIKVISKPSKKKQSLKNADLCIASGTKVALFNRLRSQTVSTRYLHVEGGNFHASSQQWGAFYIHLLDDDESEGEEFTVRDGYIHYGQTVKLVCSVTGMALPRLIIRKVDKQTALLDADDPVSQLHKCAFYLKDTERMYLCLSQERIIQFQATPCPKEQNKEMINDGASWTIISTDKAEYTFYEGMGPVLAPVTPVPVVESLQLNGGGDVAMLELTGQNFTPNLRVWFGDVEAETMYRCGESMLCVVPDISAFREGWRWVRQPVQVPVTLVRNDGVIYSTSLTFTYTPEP

B1: mouse N1ICD (aa 1744–2113) (domain or fragment, UniProt Q01705 1744-2113, looked up)
chain: VLLSRKRRRQHGQLWFPEGFKVSEASKKKRREPLGEDSVGLKPLKNASDGALMDDNQNEWGDEDLETKKFRFEEPVVLPDLSDQTDHRQWTQQHLDAADLRMSAMAPTPPQGEVDADCMDVNVRGPDGFTPLMIASCSGGGLETGNSEEEEDAPAVISDFIYQGASLHNQTDRTGETALHLAARYSRSDAAKRLLEASADANIQDNMGRTPLHAAVSADAQGVFQILLRNRATDLDARMHDGTTPLILAARLAVEGMLEDLINSHADVNAVDDLGKSALHWAAAVNNVDAAVVLLKNGANKDMQNNKEETPLFLAAREGSYETAKVLLDHFANRDITDHMDRLPRDIAQERMHHDIVRLLDEYNLVRSPQ
notes: Notch1 intracellular domain (RAM-ANK), mouse, residues 1744-2113; also called N1 RAM-ANK domain; WT N1ICD
Regarding B1, in series [1], the “fold stronger binding of the NTC to the second site than to the first site (cooperativity on 1xSPS)” value is 5 fold. Moreover, the binding result in series [2] is recorded as “binds”.

B2: mouse N1^RAICD (aa 1744–2113) (domain or fragment, UniProt Q01705 1744-2113, looked up)
chain: B1 chain with R231A
notes: Notch1 intracellular domain (RAM-ANK), mouse, residues 1744-2113, with Arg1974 in the ANK domain changed to alanine; also called RA mutant; N1^R1974A
On to B2, for which the binding result in series [2] is given as “binds”.

B3: human SMT3-MAML1 (aa 1–280) (domain or fragment, UniProt Q92585 1-280, looked up)
chain: MVLPTCPMAEFALPRHSAVMERLRRRIELCRRHHSTCEARYEAVSPERLELERQHTFALHQRCIQAKAKRAGKHRQPPAATAPAPAAPAPRLDAADGPEHGRPATHLHDTVKRNLDSATSPQNGDQQNGYGDLFPGHKKTRREAPLGVAISSNGLPPASPLGQSDKPSGADALQSSGKHSLGLDSLNKKRLADSSLHLNGGSNPSESFPLSLNKELKQEPVEDLPCMITGTVGSISQSNLMPDLNLNEQEWKELIEELNRSVPDEDMKDLFNEDFEEKKD
notes: Mastermind-like 1 (MAML1), human, residues 1-280; also called MAML protein; Mastermind-like
On to B3, for which the binding result in series [2] was “binds”.
